According to PMC2734247, “The Chlamydia Type III Secretion System C-ring Engages a Chaperone-Effector Protein Complex” (PLoS Pathogens, 2009):

Tests used:
[1] = target: Cap1-6xHis (aa 1-298) (C. trachomatis serovar D); experiment: SEC; proteins eluted from Ni2+-NTA (complexes formed by co-expression in E. coli) on a 16/60 Sephacryl S-100 HR column; 10 mM Tris-HCl/50 mM phosphate buffer/150 mM NaCl pH 8.0; sizes by a low molecular weight calibration kit
[2] = target: the molecule itself; experiment: cross-linking; purified 6xHis-Mcsc treated with 0.25-1 mM DSP for 20 min at 4 C; SDS-PAGE with or without 50 mM DTT; immunoblot with Mcsc antibodies
Ct618-6xHis (aa 1-189) = target: T1, Ct618-6xHis (aa 1-189) (C. trachomatis serovar D, UniProt O84623 1-189); experiment: SEC; proteins eluted from Ni2+-NTA (complexes formed by co-expression in E. coli) on a 16/60 Sephacryl S-100 HR column; 10 mM Tris-HCl/50 mM phosphate buffer/150 mM NaCl pH 8.0; sizes by a low molecular weight calibration kit; conditions: both partners purified
T1 construct: Ct618 of C. trachomatis, amino-terminal domain, aa 1-189; printed as Ct618-6xHis; also called 6xHis-tagged Ct618; amino-terminal domain of Ct618; source: E. coli BL21 DE3 (bicistronic pET-24d with Mcsc), in lysate; purified (Ni2+-NTA agarose, gel filtration)
T1 sequence: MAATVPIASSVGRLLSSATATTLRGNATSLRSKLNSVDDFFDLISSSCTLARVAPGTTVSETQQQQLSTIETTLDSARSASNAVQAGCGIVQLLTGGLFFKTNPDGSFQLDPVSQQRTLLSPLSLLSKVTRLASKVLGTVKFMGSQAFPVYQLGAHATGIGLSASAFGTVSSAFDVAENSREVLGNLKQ

Mcsc, untagged, co-expressed from a bicistronic vector (from UniProt O84262 1-163) (natural protein)
stoichiometry N (Mcsc subunits per effector protein) [1]: 2

B1: 6xHis-Mcsc (natural protein)
chain: MTTWTLNHNNLTKFLTHAQLEPSLERESGLIYITVPAGEHELPLFFVIRNEGEVLQLVCYFPYQIQQNQRDTTARLLHLVNRDIDIPGFGMDEEQNIIFYRLVIPCLKGEINEDLLRVYIDTIKLICDSFFHAIGLISTGNMDLDELKKQAKLENNQSDQLEP
notes: Ct260 (Mcsc) of C. trachomatis, amplified from serovar D genomic DNA; printed as 6xHis-Mcsc, vector pET15b; also called hexahistidine-tagged Mcsc (Ct260); 6xHis-tagged Mcsc dimers; source: E. coli BL21 DE3 (pET15b-Mcsc), purified (Ni2+-NTA agarose, gel filtration)
stoichiometry N [2]: 2

B2: Mcsc, untagged, co-expressed from a bicistronic vector (natural protein)
chain: B1 chain
notes: Ct260 (Mcsc) of C. trachomatis, amplified from serovar D genomic DNA; also called untagged Mcsc; Ct260; source: E. coli BL21 DE3 (bicistronic pET-24d), in lysate; co-purified with the 6xHis-tagged effector (Ni2+-NTA agarose, gel filtration)
stoichiometry N (Ct618-6xHis (aa 1-189)): 2 Mcsc subunits per effector protein
